Measurements from patent US20040001835A1, “Prevention or treatment of cancer using integrin alphavbeta3 antagonists in combination with other agents” (MedImmune, Inc., priority 2002, published 2004).
“Also recorded” adds a separate entry of the source.

How the values were obtained:
[1] = target: T1, human αvβ3 (Homo sapiens, UniProt P05106); assay: Flow cytometric analysis of antibody binding to cell lines; settings: for Fold Increase Over Control (mean channel fluorescence): 5×10^5 cells, 0.5 μg antibody, vs isotype matched control antibody
T1 construct: endogenous in cells; host or cells: M21 melanoma, HMVEC, HUVEC
T1 sequence (P06756 31-889 partner limits assumed, one chain of several): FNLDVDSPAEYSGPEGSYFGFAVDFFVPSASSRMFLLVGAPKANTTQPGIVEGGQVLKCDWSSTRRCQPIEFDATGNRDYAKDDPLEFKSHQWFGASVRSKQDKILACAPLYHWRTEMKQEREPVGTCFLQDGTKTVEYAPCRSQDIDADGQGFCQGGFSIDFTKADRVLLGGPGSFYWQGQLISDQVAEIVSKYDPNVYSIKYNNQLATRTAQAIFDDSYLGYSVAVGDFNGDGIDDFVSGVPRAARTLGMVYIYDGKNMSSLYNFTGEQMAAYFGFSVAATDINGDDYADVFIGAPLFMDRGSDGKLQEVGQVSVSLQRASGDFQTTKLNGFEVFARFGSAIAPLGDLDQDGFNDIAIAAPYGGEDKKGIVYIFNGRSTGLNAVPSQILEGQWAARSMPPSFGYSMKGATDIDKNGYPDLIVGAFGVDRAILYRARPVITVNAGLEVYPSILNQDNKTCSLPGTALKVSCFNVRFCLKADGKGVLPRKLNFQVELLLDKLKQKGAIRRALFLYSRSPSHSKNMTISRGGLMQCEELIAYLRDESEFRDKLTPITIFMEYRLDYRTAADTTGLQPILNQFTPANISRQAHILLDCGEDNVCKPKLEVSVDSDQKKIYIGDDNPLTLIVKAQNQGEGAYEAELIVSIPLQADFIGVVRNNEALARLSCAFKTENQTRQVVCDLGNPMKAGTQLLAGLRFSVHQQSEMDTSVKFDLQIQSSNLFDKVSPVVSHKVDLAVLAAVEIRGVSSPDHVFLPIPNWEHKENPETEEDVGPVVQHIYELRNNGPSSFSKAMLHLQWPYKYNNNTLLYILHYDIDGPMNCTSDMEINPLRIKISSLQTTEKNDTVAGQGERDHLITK
T1 sequence (P06756 891-1048 partner limits assumed, one chain of several): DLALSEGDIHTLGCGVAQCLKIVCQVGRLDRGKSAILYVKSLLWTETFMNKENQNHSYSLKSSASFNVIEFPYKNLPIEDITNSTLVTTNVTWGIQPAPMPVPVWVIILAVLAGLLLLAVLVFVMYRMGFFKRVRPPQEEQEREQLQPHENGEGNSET
Description: (§1) FIG. 2. Flow cytometric analysis of antibody binding to tumor cell lines. […] Rat αvβ3 was not recognized by any of the three antibodies but was detected by the anti-rat αvβ3 control antibody.
(§2) Cells (5×10^5) were incubated with 0.5 μg of antibody and bound antibody was detected with a phycoerythrin-labeled secondary antibody. Mean channel fluorescence results are expressed as fold increase over an isotype matched control antibody. The mouse anti-rat β3 antibody F11 was included for as a positive control for the rat cell line RG2. HMVEC, human microvascular endothelial cells; ND, not done.

[2] = system: hamster αvβ3; assay: as above
Description: as §1, §2

[3] = system: Rabbit αvβ3; assay: as above
Description: as §1, §2

[4] = target: T2, human β3 complexed to endogenous mouse αv (Homo sapiens, UniProt P05106); assay: Flow cytometric analysis of binding to human β3 transfected B16F10 cells; settings: mouse melanoma B16F10, human β3 with endogenous mouse αv, FACS, FIG. 3
T2 construct: expressed in transfected cells; host or cells: B16F10 mouse melanoma
T2 sequence (P05106 27-788): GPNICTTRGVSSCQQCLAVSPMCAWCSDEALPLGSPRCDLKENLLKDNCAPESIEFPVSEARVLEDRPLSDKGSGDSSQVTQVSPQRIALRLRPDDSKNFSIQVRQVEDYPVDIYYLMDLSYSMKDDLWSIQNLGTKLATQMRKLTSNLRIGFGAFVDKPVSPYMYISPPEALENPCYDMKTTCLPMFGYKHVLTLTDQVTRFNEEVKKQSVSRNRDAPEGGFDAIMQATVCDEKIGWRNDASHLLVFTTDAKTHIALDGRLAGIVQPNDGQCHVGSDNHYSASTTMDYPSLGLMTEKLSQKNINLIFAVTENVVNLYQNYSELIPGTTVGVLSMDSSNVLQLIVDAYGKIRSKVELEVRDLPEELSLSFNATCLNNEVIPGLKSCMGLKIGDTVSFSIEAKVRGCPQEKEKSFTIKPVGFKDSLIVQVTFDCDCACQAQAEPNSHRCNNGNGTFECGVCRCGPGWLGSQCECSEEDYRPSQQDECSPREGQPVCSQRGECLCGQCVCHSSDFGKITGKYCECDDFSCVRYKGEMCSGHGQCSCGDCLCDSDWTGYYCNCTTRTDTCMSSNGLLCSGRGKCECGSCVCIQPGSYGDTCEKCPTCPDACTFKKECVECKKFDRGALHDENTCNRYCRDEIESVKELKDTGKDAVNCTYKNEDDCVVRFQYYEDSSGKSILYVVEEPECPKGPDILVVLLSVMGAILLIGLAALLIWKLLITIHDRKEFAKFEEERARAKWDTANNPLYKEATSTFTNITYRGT
T2 sequence (P43406 31-885 partner limits assumed): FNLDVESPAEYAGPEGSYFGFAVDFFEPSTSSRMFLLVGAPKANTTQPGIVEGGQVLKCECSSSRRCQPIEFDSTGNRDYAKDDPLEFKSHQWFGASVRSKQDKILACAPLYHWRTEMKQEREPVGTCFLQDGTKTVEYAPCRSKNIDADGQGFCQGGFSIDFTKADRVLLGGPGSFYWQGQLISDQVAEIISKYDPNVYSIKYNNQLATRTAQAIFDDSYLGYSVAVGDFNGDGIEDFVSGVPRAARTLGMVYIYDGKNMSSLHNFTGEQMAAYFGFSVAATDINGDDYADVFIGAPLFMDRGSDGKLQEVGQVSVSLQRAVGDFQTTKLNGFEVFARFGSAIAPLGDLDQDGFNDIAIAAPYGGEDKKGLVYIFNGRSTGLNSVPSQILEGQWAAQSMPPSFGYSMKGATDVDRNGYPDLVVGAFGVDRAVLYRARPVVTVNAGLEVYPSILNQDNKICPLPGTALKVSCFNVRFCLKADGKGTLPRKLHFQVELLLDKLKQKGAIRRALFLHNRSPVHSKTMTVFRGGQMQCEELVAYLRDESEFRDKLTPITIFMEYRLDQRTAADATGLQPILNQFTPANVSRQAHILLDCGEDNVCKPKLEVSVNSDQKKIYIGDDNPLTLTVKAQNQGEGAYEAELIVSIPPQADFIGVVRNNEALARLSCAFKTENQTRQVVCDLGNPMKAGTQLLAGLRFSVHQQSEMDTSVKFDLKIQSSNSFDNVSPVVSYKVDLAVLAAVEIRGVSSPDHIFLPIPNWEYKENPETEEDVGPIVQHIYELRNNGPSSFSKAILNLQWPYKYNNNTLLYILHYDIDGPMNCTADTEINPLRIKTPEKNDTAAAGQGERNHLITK
T2 sequence (P43406 887-1044 partner limits assumed): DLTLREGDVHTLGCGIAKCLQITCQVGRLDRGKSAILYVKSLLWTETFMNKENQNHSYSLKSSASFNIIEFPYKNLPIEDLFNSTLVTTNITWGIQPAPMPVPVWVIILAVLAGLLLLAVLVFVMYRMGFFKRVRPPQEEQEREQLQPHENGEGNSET
Description: FIG. 3. Flow cytometric analysis of binding of Vitaxin® to human β3 transfected B16F10 cells. In order to determine the binding specificity of Vitaxin® for αvβ3, the mouse melanoma line B16F10 was transfected with an expression vector encoding the human β3 gene. Cells were analyzed by FACS for expression of β3 expressed with the endogenous mouse αv.

[5] = flow cytometry, tumor cell lines, FIG. 2

Fold Increase Over Control (mean channel fluorescence) ([1]; Human HMVEC endothelial): 8.9 fold
Fold Increase Over Control (mean channel fluorescence) ([1]; Human M21 melanoma): 73 fold
B1: Vitaxin®: humanized blocking monoclonal antibody that binds Integrin αVβ3 (MEDI-522, MedImmune); humanized and optimized version of LM609 (antibody, chains of the INN, looked up, V domains shown)
VH: QVQLVESGGGVVQPGRSLRLSCAASGFTFSSYDMSWVRQAPGKGLEWVAKVSSGGGSTYYLDTVQGRFTISRDNSKNTLYLQMNSLRAEDTAVYYCARHLHGSFASWGQGTTVTVSS
VL: EIVLTQSPATLSLSPGERATLSCQASQSISNFLHWYQQRPGQAPRLLIRYRSQSISGIPARFSGSGSGTDFTLTISSLEPEDFAVYYCQQSGSWPLTFGGGTKVEIK
binding to human αvβ3 (in words) [1, 5]: recognized; also recorded: capable of binding
Fold Increase Over Control (mean channel fluorescence) ([2]; Hamster CCL-49 melanoma, 5×10^5 cells, 0.5 μg antibody, vs isotype matched control antibody): 12 fold
binding to hamster αvβ3 (in words) [2, 5]: recognized; also recorded: capable of binding
Fold Increase Over Control (mean channel fluorescence) ([3]; Rabbit VX7 carcinoma, 5×10^5 cells, 0.5 μg antibody, vs isotype matched control antibody): 17 fold
binding to rabbit αvβ3 (in words) [3, 5]: recognized
binding to human β3 transfected B16F10 cells [4]: bound; also recorded: recognized the transfected cells
